Experimental data taken from publication PMC11391049 (Life Science Alliance, 2024).

B2: β7-subunit (natural protein, S. cerevisiae, UniProt P30657 34-266, looked up)
chain: TQQPIVTGTSVISMKYDNGVIIAADNLGSYGSLLRFNGVERLIPVGDNTVVGISGDISDMQHIERLLKDLVTENAYDNPLADAEEALEPSYIFEYLATVMYQRRSKMNPLWNAIIVAGVQSNGDQFLRYVNLLGVTYSSPTLATGFGAHMANPLLRKVVDRESDIPKTTVQVAEEAIVNAMRVLYYRDARSSRNFSLAIIDKNTGLTFKKNLQVENMKWDFAKDIKGYGTQKI
notes: 20S proteasome subunit β7, S. cerevisiae, without its 33-residue propeptide (β7pro); the last 10 residues of the C-terminal extension are not resolved there

Assays:
β7-subunit [1] = target: B2; experiment: cryo-EM structure; late-PC (doubly capped with Pba1-Pba2) isolated via FLAG-6xHis on β4 from pre1-1 cells; 2.1 Å with C2 symmetry, 2.3 Å without; sub-populations late-PC1 (2.7 Å) and late-PC2 (2.3 Å); details: both partners purified
[2] = target: T1, β4-S142F (pre1-1) with FLAG-6xHis-tag (S. cerevisiae, UniProt P22141 1-198, S142F); experiment: affinity purification with mass spectrometry; tandem affinity purification (FLAG, 6xHis on β4) from pre1-1 cells overexpressing Pba1-Pba2, separation by native PAGE, bands evaluated by MS; details: partners not purified
T1 construct: Pre1/β4, S. cerevisiae, mutant version of the pre1-1 strain; also called pre1-1-FH; Pre1/β4 (β4-S142F)
T1 sequence: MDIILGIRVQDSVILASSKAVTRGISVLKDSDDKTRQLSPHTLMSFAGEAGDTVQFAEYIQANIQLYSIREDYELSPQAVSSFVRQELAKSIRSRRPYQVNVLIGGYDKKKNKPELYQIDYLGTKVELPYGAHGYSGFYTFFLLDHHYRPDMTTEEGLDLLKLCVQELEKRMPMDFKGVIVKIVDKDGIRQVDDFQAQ

[3] = target: T2, β5 precursor (β5-subunit with unprocessed β5-propeptide) (S. cerevisiae, UniProt P30656 1-287); experiment: cryo-EM structure; late-PC (doubly capped with Pba1-Pba2) isolated via FLAG-6xHis on β4 from pre1-1 cells; 2.1 Å with C2 symmetry, 2.3 Å without; sub-populations late-PC1 (2.7 Å) and late-PC2 (2.3 Å); details: both partners purified
T2 construct: β5/Pre2, S. cerevisiae, unprocessed precursor with the whole 75-residue propeptide (all but -65, -64 and -13 resolved); numbers count on: the mature subunit (Thr1 = +1, propeptide residues negative); also called Pre2; precursor form of the β5-subunit
T2 sequence (looked up): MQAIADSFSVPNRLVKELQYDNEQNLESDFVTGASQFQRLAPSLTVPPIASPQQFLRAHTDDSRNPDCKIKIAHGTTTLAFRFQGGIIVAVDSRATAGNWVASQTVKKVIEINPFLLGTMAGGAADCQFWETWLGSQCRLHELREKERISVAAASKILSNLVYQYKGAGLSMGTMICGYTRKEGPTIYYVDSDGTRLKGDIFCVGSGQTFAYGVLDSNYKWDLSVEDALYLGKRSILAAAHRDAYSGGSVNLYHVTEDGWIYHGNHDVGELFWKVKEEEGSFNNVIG

β7-subunit [4] = target: B2; experiment: cryo-EM structure; uncapped, fully matured 20S pre1-1CP isolated via FLAG-6xHis on β4; 2.0 Å with C2 symmetry; details: both partners purified
Blm10 = target: T3, Blm10 (S. cerevisiae, UniProt P43583 1-2143); experiment: cryo-EM structure; native pre1-1CP-Blm10 complex copurified via FLAG-6xHis on β4; 2.4 Å, no symmetry applied; details: both partners purified
T3 construct: also called Blm10 chaperone
T3 sequence (P43583 whole entry): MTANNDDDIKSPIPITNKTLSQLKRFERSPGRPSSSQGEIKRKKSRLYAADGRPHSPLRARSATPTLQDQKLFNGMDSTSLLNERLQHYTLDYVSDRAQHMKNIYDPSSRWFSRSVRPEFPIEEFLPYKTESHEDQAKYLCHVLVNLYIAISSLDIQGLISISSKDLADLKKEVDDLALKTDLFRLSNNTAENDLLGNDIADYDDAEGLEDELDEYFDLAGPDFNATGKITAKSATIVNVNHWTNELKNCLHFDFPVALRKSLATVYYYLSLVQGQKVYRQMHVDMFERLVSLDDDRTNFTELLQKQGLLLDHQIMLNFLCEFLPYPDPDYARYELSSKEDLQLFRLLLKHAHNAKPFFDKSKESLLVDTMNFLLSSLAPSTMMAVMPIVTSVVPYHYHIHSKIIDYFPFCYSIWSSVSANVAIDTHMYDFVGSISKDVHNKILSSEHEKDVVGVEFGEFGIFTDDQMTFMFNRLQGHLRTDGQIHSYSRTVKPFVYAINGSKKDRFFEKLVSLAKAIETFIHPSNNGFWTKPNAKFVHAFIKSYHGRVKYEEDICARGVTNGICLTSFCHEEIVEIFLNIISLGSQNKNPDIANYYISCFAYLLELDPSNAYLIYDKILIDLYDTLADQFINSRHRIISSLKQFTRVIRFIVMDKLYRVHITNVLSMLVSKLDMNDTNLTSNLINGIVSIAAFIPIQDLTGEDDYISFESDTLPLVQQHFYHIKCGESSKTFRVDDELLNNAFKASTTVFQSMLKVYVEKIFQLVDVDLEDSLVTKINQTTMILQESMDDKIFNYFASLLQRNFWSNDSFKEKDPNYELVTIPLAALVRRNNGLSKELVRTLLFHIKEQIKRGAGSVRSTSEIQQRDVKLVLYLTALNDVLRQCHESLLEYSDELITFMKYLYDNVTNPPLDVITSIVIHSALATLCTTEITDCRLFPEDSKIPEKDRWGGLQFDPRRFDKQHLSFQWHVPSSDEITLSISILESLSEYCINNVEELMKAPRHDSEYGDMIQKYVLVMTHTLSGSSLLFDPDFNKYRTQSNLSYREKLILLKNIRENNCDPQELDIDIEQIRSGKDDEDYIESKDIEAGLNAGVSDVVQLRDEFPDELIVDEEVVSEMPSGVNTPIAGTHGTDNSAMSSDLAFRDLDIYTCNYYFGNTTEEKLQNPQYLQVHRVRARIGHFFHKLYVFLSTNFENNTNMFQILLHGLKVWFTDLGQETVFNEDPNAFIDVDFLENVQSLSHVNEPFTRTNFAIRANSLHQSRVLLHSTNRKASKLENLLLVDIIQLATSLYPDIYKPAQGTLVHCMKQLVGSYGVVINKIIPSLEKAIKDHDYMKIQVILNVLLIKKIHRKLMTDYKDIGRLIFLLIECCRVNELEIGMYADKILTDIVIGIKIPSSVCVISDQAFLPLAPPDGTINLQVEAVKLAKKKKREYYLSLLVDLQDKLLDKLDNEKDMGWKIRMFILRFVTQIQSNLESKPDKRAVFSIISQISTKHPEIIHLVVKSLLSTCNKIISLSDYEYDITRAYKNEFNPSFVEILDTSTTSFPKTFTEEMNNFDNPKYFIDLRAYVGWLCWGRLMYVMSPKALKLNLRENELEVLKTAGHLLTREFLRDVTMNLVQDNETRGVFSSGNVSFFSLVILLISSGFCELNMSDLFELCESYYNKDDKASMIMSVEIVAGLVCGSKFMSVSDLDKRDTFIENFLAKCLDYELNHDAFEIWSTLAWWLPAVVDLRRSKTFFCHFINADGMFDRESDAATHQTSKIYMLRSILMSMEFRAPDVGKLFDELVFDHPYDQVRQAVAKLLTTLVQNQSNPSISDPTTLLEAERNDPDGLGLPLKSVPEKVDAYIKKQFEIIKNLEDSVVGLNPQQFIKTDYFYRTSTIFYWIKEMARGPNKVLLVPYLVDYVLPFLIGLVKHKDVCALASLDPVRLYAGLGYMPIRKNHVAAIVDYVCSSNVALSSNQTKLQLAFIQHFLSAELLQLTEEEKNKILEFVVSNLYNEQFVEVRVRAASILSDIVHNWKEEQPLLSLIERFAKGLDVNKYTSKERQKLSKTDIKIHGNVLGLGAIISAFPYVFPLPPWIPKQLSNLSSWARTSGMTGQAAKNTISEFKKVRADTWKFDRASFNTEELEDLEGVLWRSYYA

B1: Ump1 (natural protein, S. cerevisiae, UniProt P38293 1-148, looked up)
chain: MNIVPQDTFKSQVSTDQDKSVLSSAVPSLPDTLRQQEGGAVPLSTQLNDRHPLESTLKNWETTQRQRQMEQYRQIFGIAEPMKRTMEMEIVNRTDFNPLSTNGSIHRDILLNKECSIDWEDVYPGTGLQASTMVGDDVHSKIEKQLGI
notes: residues 126-131 not resolved; two Ump1 molecules are encased in one late-PC, one in each half; also called ScUmp1; Ump1 chaperone
B1: binds (β7-subunit [1]); binds [2].

B2: binds [3].

B3: β1-subunit, autocatalytically cleaved (mature, in pre1-1CP) (natural protein, S. cerevisiae, UniProt P38624 20-215, looked up)
chain: TSIMAVTFKDGVILGADSRTTTGAYIANRVTDKLTRVHDKIWCCRSGSAADTQAIADIVQYHLELYTSQYGTPSTETAASVFKELCYENKDNLTAGIIVAGYDDKNKGEVYTIPLGGSVHKLPYAIAGSGSTFIYGYCDKNFRENMSKEETVDFIKHSLSQAIKWDGSSGGVIRMVVLTAAGVERLIFYPDEYEQL
notes: β1/Pre3, S. cerevisiae, mature subunit beginning at Thr1; numbers count on: the mature subunit; also called Pre3
B3: binds (β7-subunit [4]).

B4: β2-subunit, autocatalytically processed (natural protein, S. cerevisiae, UniProt P25043 30-261, looked up)
chain: TTIVGVKFNNGVVIAADTRSTQGPIVADKNCAKLHRISPKIWCAGAGTAADTEAVTQLIGSNIELHSLYTSREPRVVSALQMLKQHLFKYQGHIGAYLIVAGVDPTGSHLFSIHAHGSTDVGYYLSLGSGSLAAMAVLESHWKQDLTKEEAIKLASDAIQAGIWNDLGSGSNVDVCVMEIGKDAEYLRNYLTPNVREEKQKSYKFPRGTTAVLKESIVNICDIQEEQVDITA
notes: β2/Pup1, S. cerevisiae, mature subunit beginning at the active site Thr1 after cleavage of the Gly-1/Thr1 bond (29-residue propeptide removed); numbers count on: the mature subunit; also called Pup1; mature β2
B4: binds (β7-subunit [4]).

B5: β6-subunit (natural protein, S. cerevisiae, UniProt P23724 20-241, looked up)
chain: QFNPYGDNGGTILGIAGEDFAVLAGDTRNITDYSINSRYEPKVFDCGDNIVMSANGFAADGDALVKRFKNSVKWYHFDHNDKKLSINSAARNIQHLLYGKRFFPYYVHTIIAGLDEDGKGAVYSFDPVGSYEREQCRAGGAAASLIMPFLDNQVNFKNQYEPGTNGKVKKPLKYLSVEEVIKLVRDSFTSATERHIQVGDGLEILIVTKDGVRKEFYELKRD
notes: 20S proteasome subunit β6, S. cerevisiae, without its 19-residue propeptide (β6pro)
B5: binds (β7-subunit [4]).

B6: α5-subunit (natural protein, S. cerevisiae, UniProt P32379 1-260, looked up)
chain: MFLTRSEYDRGVSTFSPEGRLFQVEYSLEAIKLGSTAIGIATKEGVVLGVEKRATSPLLESDSIEKIVEIDRHIGCAMSGLTADARSMIEHARTAAVTHNLYYDEDINVESLTQSVCDLALRFGEGASGEERLMSRPFGVALLIAGHDADDGYQLFHAEPSGTFYRYNAKAIGSGSEGAQAELLNEWHSSLTLKEAELLVLKILKQVMEEKLDENNAQLSCITKQDGFKIYDNEKTAELIKELKEKEAAESPEEADVEMS
notes: 20S proteasome subunit α5, S. cerevisiae
B6: binds (Blm10).

B7: α6-subunit (natural protein, S. cerevisiae, UniProt P40302 1-234, looked up)
chain: MFRNNYDGDTVTFSPTGRLFQVEYALEAIKQGSVTVGLRSNTHAVLVALKRNADELSSYQKKIIKCDEHMGLSLAGLAPDARVLSNYLRQQCNYSSLVFNRKLAVERAGHLLCDKAQKNTQSYGGRPYGVGLLIIGYDKSGAHLLEFQPSGNVTELYGTAIGARSQGAKTYLERTLDTFIKIDGNPDELIKAGVEAISQSLRDESLTVDNLSIAIVGKDTPFTIYDGEAVAKYI
notes: 20S proteasome subunit α6, S. cerevisiae
B7: binds (Blm10).
